According to article PMC6441019, “Prospective discovery of small molecule enhancers of an E3 ligase-substrate interaction” (Nature Communications, 2019):
Where a SMILES comes first, the peptide text is derived from it. Where no end group is shown, it is not given here. [ ]: non-standard residue; d: D form. The star is where a group is joined. pS = N[C@@H](COP(=O)(O)O)C(=O)O; Cbz = O=C(OCc1ccccc1)*

How the values were obtained:
[1] = biological target: T1, S33E/S37A mutant β-catenin (Homo sapiens, UniProt P35222+Q9Y297, S33E/S37A); test: β-catenin degradation in HEK293T cells stably expressing S33E/S37A β-catenin; type: cell-based; settings: for effect of co-treatment on enhancer-induced degradation of S33E/S37A β-catenin: 5 μM MLN4924 or 10 μM MG132, added 30 min before NRX-252114
T1 construct: Full-length β-catenin (Myc/FLAG-tagged; Origene); expressed in transfected cells
T1 sequence (P35222 whole entry S33E/S37A, one chain of several): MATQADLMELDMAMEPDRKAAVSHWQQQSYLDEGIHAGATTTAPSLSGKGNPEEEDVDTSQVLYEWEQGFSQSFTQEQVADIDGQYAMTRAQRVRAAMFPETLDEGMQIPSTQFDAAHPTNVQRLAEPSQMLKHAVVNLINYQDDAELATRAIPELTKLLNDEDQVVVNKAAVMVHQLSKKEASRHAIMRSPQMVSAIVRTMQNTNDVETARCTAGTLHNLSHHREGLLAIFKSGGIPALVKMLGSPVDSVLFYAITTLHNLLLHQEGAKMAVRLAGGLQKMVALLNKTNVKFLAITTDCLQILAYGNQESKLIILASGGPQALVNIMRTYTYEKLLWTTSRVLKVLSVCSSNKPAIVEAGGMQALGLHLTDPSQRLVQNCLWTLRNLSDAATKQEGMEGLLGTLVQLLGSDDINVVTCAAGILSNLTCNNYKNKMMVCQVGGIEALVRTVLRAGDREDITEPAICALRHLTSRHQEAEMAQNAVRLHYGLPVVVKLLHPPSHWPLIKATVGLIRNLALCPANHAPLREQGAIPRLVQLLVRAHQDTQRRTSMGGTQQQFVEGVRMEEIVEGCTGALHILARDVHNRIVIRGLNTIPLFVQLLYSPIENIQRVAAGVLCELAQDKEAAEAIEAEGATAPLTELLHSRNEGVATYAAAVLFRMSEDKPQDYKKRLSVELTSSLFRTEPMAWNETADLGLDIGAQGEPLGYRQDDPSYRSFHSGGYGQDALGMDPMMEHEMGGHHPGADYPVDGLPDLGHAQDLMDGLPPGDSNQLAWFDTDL
T1 sequence (P63208 whole entry partner, one chain of several): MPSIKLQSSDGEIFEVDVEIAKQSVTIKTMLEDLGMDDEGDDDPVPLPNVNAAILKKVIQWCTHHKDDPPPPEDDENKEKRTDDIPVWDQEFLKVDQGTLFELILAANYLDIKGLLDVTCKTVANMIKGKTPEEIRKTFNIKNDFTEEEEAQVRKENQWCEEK
T1 sequence (Q13616 whole entry partner, one chain of several): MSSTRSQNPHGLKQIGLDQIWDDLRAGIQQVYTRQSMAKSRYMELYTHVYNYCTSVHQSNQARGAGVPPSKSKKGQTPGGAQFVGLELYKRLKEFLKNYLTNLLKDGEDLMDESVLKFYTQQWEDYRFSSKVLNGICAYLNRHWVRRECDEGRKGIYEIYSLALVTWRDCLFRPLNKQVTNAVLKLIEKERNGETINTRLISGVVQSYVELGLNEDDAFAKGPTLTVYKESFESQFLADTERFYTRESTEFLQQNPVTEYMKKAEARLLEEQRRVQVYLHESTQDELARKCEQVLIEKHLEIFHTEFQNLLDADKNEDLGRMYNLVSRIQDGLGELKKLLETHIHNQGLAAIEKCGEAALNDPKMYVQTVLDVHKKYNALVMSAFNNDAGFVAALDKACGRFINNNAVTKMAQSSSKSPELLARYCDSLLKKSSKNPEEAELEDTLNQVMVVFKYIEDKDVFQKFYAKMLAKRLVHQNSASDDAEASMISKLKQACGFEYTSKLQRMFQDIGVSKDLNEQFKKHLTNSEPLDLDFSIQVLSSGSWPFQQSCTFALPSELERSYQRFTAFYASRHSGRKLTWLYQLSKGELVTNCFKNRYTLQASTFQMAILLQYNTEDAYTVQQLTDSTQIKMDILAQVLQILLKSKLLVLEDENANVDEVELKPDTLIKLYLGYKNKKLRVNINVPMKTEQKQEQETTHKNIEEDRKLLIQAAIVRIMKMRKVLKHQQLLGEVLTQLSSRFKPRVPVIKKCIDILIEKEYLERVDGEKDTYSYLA
T1 sequence (P62877 whole entry partner, one chain of several): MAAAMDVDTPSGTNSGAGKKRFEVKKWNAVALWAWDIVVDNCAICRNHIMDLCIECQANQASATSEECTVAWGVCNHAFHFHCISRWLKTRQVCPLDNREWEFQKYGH
T1 sequence (Q15843 1-76 partner limits assumed, one chain of several): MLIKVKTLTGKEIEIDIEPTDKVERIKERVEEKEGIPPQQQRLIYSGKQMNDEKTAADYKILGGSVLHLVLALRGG
Procedure: HEK293T cells were plated in a 10 cm dish in regular growth media (DMEM + 10% FBS) and allowed to adhere to the plate overnight. The following day, cells were transfected with S33E/S37 β-catenin using FuGeneHD transfection reagent. Transfected cells were then selected with media containing 700 μg/ml Geneticin. A pooled population of selected cells were used for all described experiments.
HEK293T cells expressing S33E/S37A β-catenin were plated in six-well plates at a density of 9 × 10^5 cells/well. The following day, cells were incubated with compounds diluted in regular growth media to the appropriate concentration. The final concentration of DMSO for all cell treatments was kept at 0.5% or less. Cell treatments with the Nedd8 inhibitor (MLN4924) and the proteasome inhibitor (MG132) were performed at a final concentration of 5 μM and 10 μM respectively. Cycloheximide treatment was performed at a final concentration of 100 μg/ml.

[2] = biological target: T2, pSer33/Ser37 β-catenin:β-TrCP interaction (Homo sapiens, UniProt P35222+Q9Y297); test: SPR binding enhancement assay
T2 construct: titrating BODIPY-FL-labeled β-catenin peptides (residues 17-48) against 300 pM β-TrCP; 6xHis-SMT3 (N, cleaved yes); made in house; host or cells: E. coli (co-expressed with BirA)
T2 sequence (Q9Y297 1-569 isoform Q9Y297-2, one chain of several): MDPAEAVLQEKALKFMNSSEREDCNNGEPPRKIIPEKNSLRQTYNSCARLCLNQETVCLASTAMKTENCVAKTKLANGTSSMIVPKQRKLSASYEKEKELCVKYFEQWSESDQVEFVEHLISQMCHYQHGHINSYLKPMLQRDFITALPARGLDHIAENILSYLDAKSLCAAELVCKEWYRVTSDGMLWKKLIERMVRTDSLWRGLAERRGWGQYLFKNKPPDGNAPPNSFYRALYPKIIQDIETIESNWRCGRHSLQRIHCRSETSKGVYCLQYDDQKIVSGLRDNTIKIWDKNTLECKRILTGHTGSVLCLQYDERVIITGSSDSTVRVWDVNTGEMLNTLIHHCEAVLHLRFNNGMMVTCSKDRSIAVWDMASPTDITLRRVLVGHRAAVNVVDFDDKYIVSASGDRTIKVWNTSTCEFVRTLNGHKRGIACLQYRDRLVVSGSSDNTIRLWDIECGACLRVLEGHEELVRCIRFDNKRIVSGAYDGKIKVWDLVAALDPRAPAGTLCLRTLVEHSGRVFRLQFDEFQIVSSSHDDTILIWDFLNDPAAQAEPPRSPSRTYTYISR
T2 sequence (P63208 whole entry partner, one chain of several, the tested form may be a part): as the sequence (P63208 whole entry partner, one chain of several) above
Procedure: SPR binding assays were performed on a GE Healthcare Biacore T200 using a Series B Biacore Sensor Chip SA. […] 333 nM β-TrCP/Skp1 and titrated compound were preincubated and flowed at a rate of 30 μl/min in 10 mM HEPES, 150 mM NaCl, 0.05% Surfactant P20, 1 mM TCEP, and 2% DMSO at pH 7.4 and 20 °C. Engagement of the ternary complex was assessed with a contact and dissociation time of 120 s. […] Errors are standard error of the fit.

[3] = biological target: T3, pSer33/Ser37 β-catenin peptide binding to β-TrCP (Homo sapiens, UniProt P35222+Q9Y297); test: TR-FRET peptide binding and cooperativity assay, pSer33/Ser37 peptide; settings: 500 μM NRX-1532; 300 pM β-TrCP; read-out: KD pS33/S37
T3 construct: titrating BODIPY-FL-labeled β-catenin peptides (residues 17-48) against 300 pM β-TrCP; 6xHis-SMT3 (N, cleaved yes); made in house; host or cells: E. coli (co-expressed with BirA)
T3 sequence (Q9Y297 1-569 isoform Q9Y297-2, one chain of several): as the sequence (Q9Y297 1-569 isoform Q9Y297-2, one chain of several) above
T3 sequence (P63208 whole entry partner, one chain of several, the tested form may be a part): as the sequence (P63208 whole entry partner, one chain of several) above
Procedure: (§1) Compounds were incubated in a 20 μl reaction volume with 300 pM biotinylated β-TrCP/Skp1 preincubated with 1.2 nM terbium-coupled streptavidin (Cisbio) and BODIPY-FL labeled β-catenin peptides (see figure legends for peptide details) in a white 384-well microplate (Perkin Elmer ProxiPlate), using a PBS buffer containing 0.01% Triton X-100 and 2 mM DTT with 2% final DMSO. […] Following 1-h incubation, plates were read for TR-FRET signal after excitation at 320 nm and read at 520 and 620 nm using an EnVision plate reader (Perkin Elmer). TR-FRET signal was calculated using a 520/620 nm ratio. Binding and enhancement data were fit to a standard Hill equation (Y = Bmin + (Bmax − Bmin)(X^h)/(X^h + EC50^h)) in Prism (GraphPad). Errors are standard error of the fit.

[4] = pKa determination (fast UV); type: physicochemical; settings: methanol:water co-solvent
Procedure: The pKa values were determined using the fast UV (spectrometric) technique. Samples were titrated in triplicate under methanol:water co-solvent conditions (with MeOH:water mixing ratios varied from 1:1 to 1:4) in the pH range 2.0–12.0 at concentrations of 15 to 30 μM and at a temperature of 25 °C. Aqueous pKa values were determined by Yasuda-Shedlovsky extrapolation from the individual determined results.

[5] = Solubility (qualitative remark); type: physicochemical
[6] = biological target: T4, pSer33/S37A β-catenin peptide binding to β-TrCP (Homo sapiens, UniProt P35222+Q9Y297, S37A); test: TR-FRET binding enhancement assay, pSer33/S37A peptide
T4 construct: titrating BODIPY-FL-labeled β-catenin peptides (residues 17-48) against 300 pM β-TrCP; 6xHis-SMT3 (N, cleaved yes); made in house; host or cells: E. coli (co-expressed with BirA)
T4 sequence (Q9Y297 1-569 isoform Q9Y297-2, stated change not applied): as the sequence (Q9Y297 1-569 isoform Q9Y297-2, one chain of several) above
T4 sequence (P63208 whole entry partner, the tested form may be a part): as the sequence (P63208 whole entry partner, one chain of several) above
T4 sequence (P35222 17-48 S37A limits assumed): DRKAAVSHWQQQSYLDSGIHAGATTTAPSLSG
Procedure: as §1

[7] = biological target: T5, S33E/S37A β-catenin peptide binding to β-TrCP (Homo sapiens, UniProt P35222+Q9Y297, S33E/S37A); test: TR-FRET binding enhancement assay, S33E/S37A peptide; settings: 1% binding saturation
T5 construct: titrating BODIPY-FL-labeled β-catenin peptides (residues 17-48) against 300 pM β-TrCP; 6xHis-SMT3 (N, cleaved yes); made in house; host or cells: E. coli (co-expressed with BirA)
T5 sequence (Q9Y297 1-569 isoform Q9Y297-2, stated change not applied): as the sequence (Q9Y297 1-569 isoform Q9Y297-2, one chain of several) above
T5 sequence (P63208 whole entry partner, the tested form may be a part): as the sequence (P63208 whole entry partner, one chain of several) above
T5 sequence (P35222 17-48 S33E/S37A limits assumed): as the sequence (P35222 17-48 S37A limits assumed) above, with S17E counted along it
Procedure: as §1

[8] = biological target: T6, endogenous S37A mutant β-catenin (Homo sapiens, UniProt P35222+Q9Y297, S37A); test: Degradation of endogenous S37A β-catenin in TOV-112D cells; type: cell-based
T6 construct: host or cells: TOV-112D
T6 sequence (P35222 whole entry S37A, one chain of several): as the sequence (P35222 whole entry S33E/S37A, one chain of several) above, with E33S counted along it
T6 sequence (P63208 whole entry partner, one chain of several): as the sequence (P63208 whole entry partner, one chain of several) above
T6 sequence (Q13616 whole entry partner, one chain of several): as the sequence (Q13616 whole entry partner, one chain of several) above
T6 sequence (P62877 whole entry partner, one chain of several): as the sequence (P62877 whole entry partner, one chain of several) above
T6 sequence (Q15843 1-76 partner limits assumed, one chain of several): as the sequence (Q15843 1-76 partner limits assumed, one chain of several) above

[9] = biological target: biotinylated β-TrCP1-avi tag/Skp1 complex (UniProt Q9Y297); test: FRET or BRET; TR-FRET, no compound: BODIPY-FL β-catenin peptide titrated against 300 pM biotinylated β-TrCP/Skp1 on 1.2 nM terbium-streptavidin; PBS, 0.01% Triton X-100, 2 mM DTT, 2% DMSO; 1 h
[10] = biological target: Myc/FLAG-tagged S33E/S37A phosphomimetic full-length β-catenin (UniProt P35222)
[11] = biological target: β-TrCP1 (recombinant β-TrCP/Skp1 complex) (UniProt Q9Y297); test: fluorescence polarisation titration; settings: sites S33
[12] = biological target: β-TrCP1 (recombinant β-TrCP/Skp1 complex) (UniProt Q9Y297); test: TR-FRET peptide titration, no compound; settings: reference: Ser33/S37A peptide; sites S33
[13] = biological target: β-TrCP1 (recombinant β-TrCP/Skp1 complex) (UniProt Q9Y297); test: peptide binding assay, type not said; settings: reference: pSer33/pSer37 peptide; sites S37
β-TrCP = biological target: T7, β-TrCP (Homo sapiens, UniProt Q9Y297); test: TR-FRET
T7 chain: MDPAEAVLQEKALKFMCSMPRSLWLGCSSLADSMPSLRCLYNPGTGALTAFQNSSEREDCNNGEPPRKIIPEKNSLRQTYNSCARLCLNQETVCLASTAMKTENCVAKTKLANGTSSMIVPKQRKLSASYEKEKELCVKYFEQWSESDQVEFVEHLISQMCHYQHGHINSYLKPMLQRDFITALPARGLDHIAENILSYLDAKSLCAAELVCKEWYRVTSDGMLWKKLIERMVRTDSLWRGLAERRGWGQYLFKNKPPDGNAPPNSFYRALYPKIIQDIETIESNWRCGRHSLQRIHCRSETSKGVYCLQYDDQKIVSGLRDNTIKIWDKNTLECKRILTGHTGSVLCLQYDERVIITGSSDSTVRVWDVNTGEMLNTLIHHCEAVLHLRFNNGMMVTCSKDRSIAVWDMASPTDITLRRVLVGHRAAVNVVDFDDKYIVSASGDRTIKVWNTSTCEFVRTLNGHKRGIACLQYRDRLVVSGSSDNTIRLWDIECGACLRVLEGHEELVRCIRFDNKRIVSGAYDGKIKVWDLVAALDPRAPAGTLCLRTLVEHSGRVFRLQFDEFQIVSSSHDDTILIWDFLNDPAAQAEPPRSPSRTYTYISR

[14] = biological target: T8, biotinylated β-TrCP/Skp1 complex (6xHis-SMT3-β-TrCP1-avi tag/Skp1, for TR-FRET) (UniProt Q9Y297-2 1-569; P63208 1-163, biotin on the avi tag (co-expressed with BirA)); test: AlphaScreen or HTRF; TR-FRET: BODIPY-FL-labeled β-catenin peptides titrated against 300 pM biotinylated β-TrCP/Skp1 on 1.2 nM terbium-coupled streptavidin; PBS, 0.01% Triton X-100, 2 mM DTT, 2% DMSO; 1 h; one-site binding model; no compound; settings: both partners purified
T8 construct: β-TrCP1; Skp1; Held on terbium-coupled streptavidin in the TR-FRET assay; also called β-TrCP complex; source: E. coli, co-expressed from pCDF-Duet1 with BirA and d-biotin, purified (Ni-NTA, ULP1 cleavage, HiTrap SP, SEC); not shown: His6, N-terminal, cleaved; SMT3, N-terminal, cleaved; avi tag, C-terminal, kept
T8 sequence (P63208 whole entry, one chain of several): as the sequence (P63208 whole entry partner, one chain of several) above

CC(C)C[C@@H](C=O)NC(=O)[C@H](CC(C)C)NC(=O)[C@H](CC(C)C)NC(=O)OCc1ccccc1 [MG132, reference compound] (Cbz-Leu-Leu-Leu-aldehyde)
effect of co-treatment on enhancer-induced degradation of S33E/S37A β-catenin [1]: completely blocked

NS(=O)(=O)OC[C@@H]1C[C@@H](n2ccc3c(N[C@H]4CCc5ccccc54)ncnc32)C[C@@H]1O [MLN4924, reference compound]
effect of co-treatment on enhancer-induced degradation of S33E/S37A β-catenin [1]: completely blocked

O=C(Nc1cccc(-c2ccn[nH]2)c1)c1ccc(C(F)(F)F)[nH]c1=O [NRX-1532]
EC50 [2]: 129000 ± 33000 nM | Kd [3]: 68 nM | pKa [4]: 5.6

O=C(Nc1cccc(-c2nnn[nH]2)c1)c1ccc(C(F)(F)F)[nH]c1=O [NRX-1933]
solubility relative to NRX-1532 [5]: more soluble

CN(C)C(=O)c1cccc(NC(=O)c2c(Sc3c(Cl)cccc3Cl)cc(C(F)(F)F)[nH]c2=O)c1 [NRX-103095]
EC50 [6]: 163 ± 6 nM | EC50 [7]: 6700 ± 700 nM

COc1cc2c(cc1OC)CN(C(=O)c1c(Sc3c(Cl)cccc3Cl)cc(C(F)(F)F)[nH]c1=O)C2 [NRX-252262]
concentration at which degradation of S33E/S37A mutant β-catenin starts ([1]; HEK293T stable line, 6 h, western): ~ 35 μM | degradation of endogenous S37A mutant β-catenin [8]: did not induce degradation

BODIPY-FL-labeled S33E/S37A phosphomimetic β-catenin peptide (residues 17-48) (from UniProt P35222 17-48)
Kd [9]: > 5000 nM | fold decrease in binding affinity relative to the pSer33/S37A peptide [9]: > 10 fold

endogenous β-TrCP of HEK293T cells (from UniProt Q9Y297 1-605) (natural protein)
degradation of stably expressed Myc/FLAG S33E/S37A β-catenin in HEK293T cells, NRX-252114 for 6 h, western blot [10]: 50 µM | degradation of stably expressed Myc/FLAG S33E/S37A β-catenin in HEK293T cells, NRX-252262 for 6 h, western blot [10]: 35 µM

β-catenin 17-48 (from UniProt P35222) Ser33/pSer37 peptide
KD ([11]; reference: pSer33/pSer37 peptide): weaker; reference 2 nM

β-catenin 17-48 (from UniProt P35222) pSer33/S37A peptide
binding against the reference [12]: stronger

β-catenin 17-48 (from UniProt P35222) pSer33/Ser37 peptide
binding against the reference ([11]; reference: non-phosphorylated peptide (Ser33/Ser37)): stronger

β-catenin (from UniProt P35222) pSer33/S37A peptide
binding against the reference [13]: weaker

B1: β-catenin peptide (protein)
chain: ATQADLMELDMAMEPDRKAAVSHWQQQSYLDSGIHSGATTTAPSLSGKGNPEEEDVDTSQVLYEWEQGFSQSFTQEQVADIDGQYAMTRAQRVRAAMFPETLDEGMQIPSTQFDAAHPTNVQRLAEPSQMLKHAVVNLINYQDDAELATRAIPELTKLLNDEDQVVVNKAAVMVHQLSKKEASRHAIMRSPQMVSAIVRTMQNTNDVETARCTAGTLHNLSHHREGLLAIFKSGGIPALVKMLGSPVDSVLFYAITTLHNLLLHQEGAKMAVRLAGGLQKMVALLNKTNVKFLAITTDCLQILAYGNQESKLIILASGGPQALVNIMRTYTYEKLLWTTSRVLKVLSVCSSNKPAIVEAGGMQALGLHLTDPSQRLVQNCLWTLRNLSDAATKQEGMEGLLGTLVQLLGSDDINVVTCAAGILSNLTCNNYKNKMMVCQVGGIEALVRTVLRAGDREDITEPAICALRHLTSRHQEAEMAQNAVRLHYGLPVVVKLLHPPSHWPLIKATVGLIRNLALCPANHAPLREQGAIPRLVQLLVRAHQDTQRRTSMGGTQQQFVEGVRMEEIVEGCTGALHILARDVHNRIVIRGLNTIPLFVQLLYSPIENIQRVAAGVLCELAQDKEAAEAIEAEGATAPLTELLHSRNEGVATYAAAVLFRMSEDKPQDYKKRLSVELTSSLFRTEPMAWNETADLGLDIGAQGEPLGYRQDDPSYRSFHSGGYGQDALGMDPMMEHEMGGHHPGADYPVDGLPDLGHAQDLMDGLPPGDSNQLAWFDTDL
modifications: 20 µM NRX-252114
Kd (β-TrCP): 180 nM

B2: BODIPY-FL-labeled pSer33/S37C β-catenin peptide (residues 17-48) (peptide)
peptide: Ac-CDRKAAVSHWQQQSYLD[pS]GIHCGATTTAPSLSG
modifications: cysteine pairing not given here; also: BODIPY-FL label, site not given here
notes: added N-terminal cysteine of the peptide list, not part of β-catenin 17-48; as the printed 17-48 peptide with this change; also called pSer33/Cys37; pS33/S37C
Kd [14]: 154 nM

B3: BODIPY-FL-labeled pSer33/S37F β-catenin peptide (residues 17-48) (peptide)
peptide: Ac-CDRKAAVSHWQQQSYLD[pS]GIHFGATTTAPSLSG
modifications: also: BODIPY-FL label, site not given here
notes: added N-terminal cysteine of the peptide list, not part of β-catenin 17-48; as the printed 17-48 peptide with this change; also called pSer33/Phe37; pS33/S37F
Kd [14]: 23 nM
